Test results from paper PMC12441935, “De novo designed 3-helix bundle peptides and proteins with controlled topology and stability” (Chemical Science, 2025).

Biological target: the molecule itself
Experiment: AUC; sedimentation velocity and sedimentation equilibrium of the individual peptides N and N′, 20 °C

Protein: ELAALKEELAALKEETAALKYELAAL [apCCTri-N′]
- stoichiometry N: 3

Protein: KLAALEKKLAALEKKTAALEYKLAAL [apCCTri-N]
- stoichiometry N: 3
